Legend:
Assay in all cases: cell-based or functional assay
[1] = target: Non-nuclear targets expressed at low levels (seipin, NPC1, PEX3 and Glut1), tagged with miniIAA7-mEGFP
[2] = target: seipin tagged with miniIAA7-mEGFP (miniIAA7 = AtIAA7 amino acids 37-104) (human; Arabidopsis thaliana) (UniProt Q96G97)
[3] = target: all targets (endogenous loci tagged homozygously with miniIAA7-mEGFP N- or C-terminally)
[4] = target: LBR tagged C-terminally with miniIAA7-mEGFP (human; Arabidopsis thaliana) (UniProt Q14739)
[5] = target: NMIIa (MYH9) tagged N-terminally with miniIAA7-mEGFP (Arabidopsis thaliana; human) (UniProt P35579)
[6] = target: seipin tagged with miniAID-mEGFP (miniAID = AtIAA17 amino acid residues 68-132) (human; Arabidopsis thaliana) (UniProt Q96G97)

B1: Arabidopsis thaliana AFB2 (AtAFB2), auxin perceptive F-box protein, tagged with mCherry (receptor, not shown: large carriers)
chain: MNYFPDEVIEHVFDFVTSHKDRNAISLVCKSWYKIERYSRQKVFIGNCYAINPERLLRRFPCLKSLTLKGKPHFADFNLVPHEWGGFVLPWIEALARSRVGLEELRLKRMVVTDESLELLSRSFVNFKSLVLVSCEGFTTDGLASIAANCRHLRDLDLQENEIDDHRGQWLSCFPDTCTTLVTLNFACLEGETNLVALERLVARSPNLKSLKLNRAVPLDALARLMACAPQIVDLGVGSYENDPDSESYLKLMAVIKKCTSLRSLSGFLEAAPHCLSAFHPICHNLTSLNLSYAAEIHGSHLIKLIQHCKKLQRLWILDSIGDKGLEVVASTCKELQELRVFPSDLLGGGNTAVTEEGLVAISAGCPKLHSILYFCQQMTNAALVTVAKNCPNFIRFRLCILEPNKPDHVTSQPLDEGFGAIVKACKSLRRLSLSGLLTDQVFLYIGMYANQLEMLSIAFAGDTDKGMLYVLNGCKKMKKLEIRDSPFGDTALLADVSKYETMRSLWMSSCEVTLSGCKRLAEKAPWLNVEIINENDNNRMEENGHEGRQKVDKLYLYRTVVGTRMDAPPFVWILGGSGG
- target protein level at 1 h IAA, FACS of GFP [1]: 2 to 5%
- auxin-inducible protein reduction at 1 h IAA, FACS of GFP, compared to miniAID [2]: 3 fold
- target protein level at 0 h IAA (basal degradation), FACS of GFP (% levels of control) [3]: 86 to 109
- target protein level at 16 h IAA, FACS of GFP [3]: 2 to 5 % levels
- target protein level at 1 h IAA, FACS of GFP [4]: < 12%
- target protein level at 1 h IAA, FACS of GFP [5]: < 12%
- target protein level before IAA addition (0 h IAA), FACS of GFP, compared to OsTIR1 [6]: 5 fold

B2: TIR1 derived from Oryza sativa (OsTIR1) (receptor, UniProt Q7XVM8 1-575, looked up)
chain: MTYFPEEVVEHIFSFLPAQRDRNTVSLVCKVWYEIERLSRRGVFVGNCYAVRAGRVAARFPNVRALTVKGKPHFADFNLVPPDWGGYAGPWIEAAARGCHGLEELRMKRMVVSDESLELLARSFPRFRALVLISCEGFSTDGLAAVASHCKLLRELDLQENEVEDRGPRWLSCFPDSCTSLVSLNFACIKGEVNAGSLERLVSRSPNLRSLRLNRSVSVDTLAKILLRTPNLEDLGTGNLTDDFQTESYFKLTSALEKCKMLRSLSGFWDASPVCLSFIYPLCAQLTGLNLSYAPTLDASDLTKMISRCVKLQRLWVLDCISDKGLQVVASSCKDLQELRVFPSDFYVAGYSAVTEEGLVAVSLGCPKLNSLLYFCHQMTNAALVTVAKNCPNFTRFRLCILEPGKPDVVTSQPLDEGFGAIVRECKGLQRLSISGLLTDKVFMYIGKYAKQLEMLSIAFAGDSDKGMMHVMNGCKNLRKLEIRDSPFGDAALLGNFARYETMRSLWMSSCNVTLKGCQVLASKMPMLNVEVINERDGSNEMEENHGDLPKVEKLYVYRTTAGARDDAPNFVKIL
- basal degradation at 0 h IAA, FACS of GFP [3]: 12 to 37%
- depletion efficiency at 16 h IAA, FACS of GFP [3]: 2 to 7%
